Laboratory results published in patent JPH10324699A (dated 1998).

T1: ヒトFas抗原 (ヒトリンパ球細胞株HPB−ALL細胞上) (human, UniProt P25445 26-335)
T1 sequence (looked up): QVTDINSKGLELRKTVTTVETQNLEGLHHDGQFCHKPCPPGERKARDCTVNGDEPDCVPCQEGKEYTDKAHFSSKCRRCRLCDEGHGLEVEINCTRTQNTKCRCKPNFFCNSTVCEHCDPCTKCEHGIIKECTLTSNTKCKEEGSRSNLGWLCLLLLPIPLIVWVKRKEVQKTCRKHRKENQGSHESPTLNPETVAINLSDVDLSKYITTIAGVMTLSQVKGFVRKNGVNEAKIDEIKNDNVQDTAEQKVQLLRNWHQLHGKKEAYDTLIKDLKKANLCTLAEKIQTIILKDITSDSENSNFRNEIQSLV

B1: マウス抗ヒトFas抗体CH11(MBL社) (antibody, mouse IgM)
heavy: EVQLQQSGPELVKPGASVKISCKASGYTFTDYNMHWVKQSHGKSLEWIGYIYPYNGGTGYNQKFKSKATLTVDNSSSTAYMELRSLTSEDSAVYYCARSYYAMDYWGQGTSVTVSSESQSFPNVFPLVSCESPLSDKNLVAMGCLARDFLPSTISFTWNYQNNTEVIQGIRTFPTLRTGGKYLATSQVLLSPKSILEGSDEYLVCKIHYGGKNRDLHVPIPAVAEMNPNVNVFVPPRDGFSGPAPRKSKLICEATNFTPKPITVSWLKDGKLVESGFTTDPVTIENKGSTPQTYKVISTLTISEIDWLNLNVYTCRVDHRGLTFLKNVSSTCAASPSTDILTFTIPPSFADIFLSKSANLTCLVSNLATYETLNISWASQSGEPLETKIKIMESHPNGTFSAKGVASVCVEDWNNRKEFVCTVTHRDLPSPQKKFISKPNEVHKHPPAVYLLPPAREQLNLRESATVTCLVKGFSPADISVQWLQRGQLLPQEKYVTSAPMPEPGAPGFYFTHSILTVTEEEWNSGETYTCVVGHEALPHLVTERTVDKSTGKPTLYNVSLIMSDTGGTCY
light: DVVMTQSPLSLPVSLGDQASISCRSSKSLVHSNGNTYLHWYLQKPGQSPKLLIYKVSNRFSGVPDRFSGSGSGTDFTLKISRVEAEDLGVYFCSQSTHVPPAFGGGTKLEIKRADAAPTVSIFPPSSEQLTSGGASVVCFLNNFYPKDINVKWKIDGSERQNGVLNSWTDQDSKDSTYSMSSTLTLTKDEYERHNSYTCEATHKTSTSPIVKSFNRNEC
chain: DDEATILADNKCMCTRVTSRIIPSTEDPNEDIVERNIRIVVPLNNRENISDPTSPLRRNFVYHLSDVCKKCDPVEVELEDQVVTATQSNICNEDDGVPETCYMYDRNKCYTTMVPLRYHGETKMVQAALTPDSCYPD
B2: 抗ヒトFasヒト化抗体 [B] (pHμM1-1 及び pHκKY2-58 でコ・トランスフェクションしたCOS-7細胞の発現産物; HμM鎖 + VL-KY鎖) (antibody)
heavy: EVQLVQSGAEVKKPGASVKVSCKASGYTFTDYNMHWVKQAHGKSLEWMGYIYPYNGGTGYNQKFKSKATLTVDNSASTAYMELSSLRSEDTAVYYCARSYYAMDYWGQGTLVTVSSGSASAPTLFPLVSCENSPSDTSSVAVGCLAQDFLPDSITFSWKYKNNSDISSTRGFPSVLRGGKYAATSQVLLPSKDVMQGTDEHVVCKVQHPNGNKEKNVPLPVIAELPPKVSVFVPPRDGFFGNPRKSKLICQATGFSPRQIQVSWLREGKQVGSGVTTDQVQAEAKESGPTTYKVTSTLTIKESDWLSQSMFTCRVDHRGLTFQQNASSMCVPDQDTAIRVFAIPPSFASIFLTKSTKLTCLVTDLTTYDSVTISWTRQNGEAVKTHTNISESHPNATFSAVGEASICEDDWNSGERFTCTVTHTDLPSPLKQTISRPKGVALHRPDVYLLPPAREQLNLRESATITCLVTGFSPADVFVQWMQRGQPLSPEKYVTSAPMPEPQAPGRYFAHSILTVSEEEWNTGETYICVVAHEALPNRVTERTVDKSTGKPTLYNVSLVMSDTAGTCY
light: DVVMTQSPLSLPVTLGQPASISCRSSKSLVHSNGNTYLHWYLQKPGQSPKLLIYKVSNRFSGVPDRFSGSGSGTDFTLKISRVEAEDVGVYYCSQSTHVPPAFGQGTKVEIKRTVAAPSVFIFPPSDEQLKSGTASVVCLLNNFYPREAKVQWKVDNALQSGNSQESVTEQDSKDSTYSLSSTLTLSKADYEKHKVYACEVTHQGLSSPVTKSFNRGEC
B3: 抗ヒトFasヒト化抗体 [D] (pHμM1-1 及び pHκRY2-10; HμM鎖 + VL-RY鎖) (antibody, human IgM)
heavy: EVQLVQSGAEVKKPGASVKVSCKASGYTFTDYNMHWVKQAHGKSLEWMGYIYPYNGGTGYNQKFKSKATLTVDNSASTAYMELSSLRSEDTAVYYCARSYYAMDYWGQGTLVTVSSGSASAPTLFPLVSCENSPSDTSSVAVGCLAQDFLPDSITFSWKYKNNSDISSTRGFPSVLRGGKYAATSQVLLPSKDVMQGTDEHVVCKVQHPNGNKEKNVPLPVIAELPPKVSVFVPPRDGFFGNPRKSKLICQATGFSPRQIQVSWLREGKQVGSGVTTDQVQAEAKESGPTTYKVTSTLTIKESDWLSQSMFTCRVDHRGLTFQQNASSMCVPDQDTAIRVFAIPPSFASIFLTKSTKLTCLVTDLTTYDSVTISWTRQNGEAVKTHTNISESHPNATFSAVGEASICEDDWNSGERFTCTVTHTDLPSPLKQTISRPKGVALHRPDVYLLPPAREQLNLRESATITCLVTGFSPADVFVQWMQRGQPLSPEKYVTSAPMPEPQAPGRYFAHSILTVSEEEWNTGETYICVVAHEALPNRVTERTVDKSTGKPTLYNVSLVMSDTAGTCY
light: DVVMTQSPLSLPVTLGQPASISCRSSKSLVHSNGNTYLHWYLQKPGQSPRLLIYKVSNRFSGVPDRFSGSGSGTDFTLKISRVEAEDVGVYYCSQSTHVPPAFGQGTKVEIKRTVAAPSVFIFPPSDEQLKSGTASVVCLLNNFYPREAKVQWKVDNALQSGNSQESVTEQDSKDSTYSLSSTLTLSKADYEKHKVYACEVTHQGLSSPVTKSFNRGEC
B4: 抗ヒトFasヒト化抗体 [G] (pHμH5-1 及び pHκKF2-19; HμH鎖 + VL-KF鎖) (antibody, human IgM)
heavy: EVQLVQSGAEVKKPGASVKVSCKASGYTFTDYNMHWVRQAPGQGLEWMGYIYPYNGGTGYNQKFKSKATLTVDNSASTAYMELSSLRSEDTAVYYCARSYYAMDYWGQGTLVTVSSGSASAPTLFPLVSCENSPSDTSSVAVGCLAQDFLPDSITFSWKYKNNSDISSTRGFPSVLRGGKYAATSQVLLPSKDVMQGTDEHVVCKVQHPNGNKEKNVPLPVIAELPPKVSVFVPPRDGFFGNPRKSKLICQATGFSPRQIQVSWLREGKQVGSGVTTDQVQAEAKESGPTTYKVTSTLTIKESDWLSQSMFTCRVDHRGLTFQQNASSMCVPDQDTAIRVFAIPPSFASIFLTKSTKLTCLVTDLTTYDSVTISWTRQNGEAVKTHTNISESHPNATFSAVGEASICEDDWNSGERFTCTVTHTDLPSPLKQTISRPKGVALHRPDVYLLPPAREQLNLRESATITCLVTGFSPADVFVQWMQRGQPLSPEKYVTSAPMPEPQAPGRYFAHSILTVSEEEWNTGETYICVVAHEALPNRVTERTVDKSTGKPTLYNVSLVMSDTAGTCY
light: DVVMTQSPLSLPVTLGQPASISCRSSKSLVHSNGNTYLHWYLQKPGQSPKLLIYKVSNRFSGVPDRFSGSGSGTDFTLKISRVEAEDVGVYFCSQSTHVPPAFGQGTKVEIKRTVAAPSVFIFPPSDEQLKSGTASVVCLLNNFYPREAKVQWKVDNALQSGNSQESVTEQDSKDSTYSLSSTLTLSKADYEKHKVYACEVTHQGLSSPVTKSFNRGEC
B5: 抗ヒトFasヒト化抗体 [C] (pHμM1-1 及び pHκKF2-19; HμM鎖 + VL-KF鎖) (antibody, human IgM)
heavy: EVQLVQSGAEVKKPGASVKVSCKASGYTFTDYNMHWVKQAHGKSLEWMGYIYPYNGGTGYNQKFKSKATLTVDNSASTAYMELSSLRSEDTAVYYCARSYYAMDYWGQGTLVTVSSGSASAPTLFPLVSCENSPSDTSSVAVGCLAQDFLPDSITFSWKYKNNSDISSTRGFPSVLRGGKYAATSQVLLPSKDVMQGTDEHVVCKVQHPNGNKEKNVPLPVIAELPPKVSVFVPPRDGFFGNPRKSKLICQATGFSPRQIQVSWLREGKQVGSGVTTDQVQAEAKESGPTTYKVTSTLTIKESDWLSQSMFTCRVDHRGLTFQQNASSMCVPDQDTAIRVFAIPPSFASIFLTKSTKLTCLVTDLTTYDSVTISWTRQNGEAVKTHTNISESHPNATFSAVGEASICEDDWNSGERFTCTVTHTDLPSPLKQTISRPKGVALHRPDVYLLPPAREQLNLRESATITCLVTGFSPADVFVQWMQRGQPLSPEKYVTSAPMPEPQAPGRYFAHSILTVSEEEWNTGETYICVVAHEALPNRVTERTVDKSTGKPTLYNVSLVMSDTAGTCY
light: DVVMTQSPLSLPVTLGQPASISCRSSKSLVHSNGNTYLHWYLQKPGQSPKLLIYKVSNRFSGVPDRFSGSGSGTDFTLKISRVEAEDVGVYFCSQSTHVPPAFGQGTKVEIKRTVAAPSVFIFPPSDEQLKSGTASVVCLLNNFYPREAKVQWKVDNALQSGNSQESVTEQDSKDSTYSLSSTLTLSKADYEKHKVYACEVTHQGLSSPVTKSFNRGEC
B6: 抗ヒトFasヒト化抗体 [I] (pHμH5-1 及び pHκRF2-52; HμH鎖 + VL-RF鎖) (antibody, human IgM)
heavy: EVQLVQSGAEVKKPGASVKVSCKASGYTFTDYNMHWVRQAPGQGLEWMGYIYPYNGGTGYNQKFKSKATLTVDNSASTAYMELSSLRSEDTAVYYCARSYYAMDYWGQGTLVTVSSGSASAPTLFPLVSCENSPSDTSSVAVGCLAQDFLPDSITFSWKYKNNSDISSTRGFPSVLRGGKYAATSQVLLPSKDVMQGTDEHVVCKVQHPNGNKEKNVPLPVIAELPPKVSVFVPPRDGFFGNPRKSKLICQATGFSPRQIQVSWLREGKQVGSGVTTDQVQAEAKESGPTTYKVTSTLTIKESDWLSQSMFTCRVDHRGLTFQQNASSMCVPDQDTAIRVFAIPPSFASIFLTKSTKLTCLVTDLTTYDSVTISWTRQNGEAVKTHTNISESHPNATFSAVGEASICEDDWNSGERFTCTVTHTDLPSPLKQTISRPKGVALHRPDVYLLPPAREQLNLRESATITCLVTGFSPADVFVQWMQRGQPLSPEKYVTSAPMPEPQAPGRYFAHSILTVSEEEWNTGETYICVVAHEALPNRVTERTVDKSTGKPTLYNVSLVMSDTAGTCY
light: DVVMTQSPLSLPVTLGQPASISCRSSKSLVHSNGNTYLHWYLQKPGQSPRLLIYKVSNRFSGVPDRFSGSGSGTDFTLKISRVEAEDVGVYFCSQSTHVPPAFGQGTKVEIKRTVAAPSVFIFPPSDEQLKSGTASVVCLLNNFYPREAKVQWKVDNALQSGNSQESVTEQDSKDSTYSLSSTLTLSKADYEKHKVYACEVTHQGLSSPVTKSFNRGEC
B7: 抗ヒトFasヒト化抗体 [E] (pHμM1-1 及び pHκRF2-52; HμM鎖 + VL-RF鎖) (antibody, human IgM)
heavy: EVQLVQSGAEVKKPGASVKVSCKASGYTFTDYNMHWVKQAHGKSLEWMGYIYPYNGGTGYNQKFKSKATLTVDNSASTAYMELSSLRSEDTAVYYCARSYYAMDYWGQGTLVTVSSGSASAPTLFPLVSCENSPSDTSSVAVGCLAQDFLPDSITFSWKYKNNSDISSTRGFPSVLRGGKYAATSQVLLPSKDVMQGTDEHVVCKVQHPNGNKEKNVPLPVIAELPPKVSVFVPPRDGFFGNPRKSKLICQATGFSPRQIQVSWLREGKQVGSGVTTDQVQAEAKESGPTTYKVTSTLTIKESDWLSQSMFTCRVDHRGLTFQQNASSMCVPDQDTAIRVFAIPPSFASIFLTKSTKLTCLVTDLTTYDSVTISWTRQNGEAVKTHTNISESHPNATFSAVGEASICEDDWNSGERFTCTVTHTDLPSPLKQTISRPKGVALHRPDVYLLPPAREQLNLRESATITCLVTGFSPADVFVQWMQRGQPLSPEKYVTSAPMPEPQAPGRYFAHSILTVSEEEWNTGETYICVVAHEALPNRVTERTVDKSTGKPTLYNVSLVMSDTAGTCY
light: DVVMTQSPLSLPVTLGQPASISCRSSKSLVHSNGNTYLHWYLQKPGQSPRLLIYKVSNRFSGVPDRFSGSGSGTDFTLKISRVEAEDVGVYFCSQSTHVPPAFGQGTKVEIKRTVAAPSVFIFPPSDEQLKSGTASVVCLLNNFYPREAKVQWKVDNALQSGNSQESVTEQDSKDSTYSLSSTLTLSKADYEKHKVYACEVTHQGLSSPVTKSFNRGEC

target: T1, ヒトFas抗原 (ヒトリンパ球細胞株HPB−ALL細胞上); assay: cell-based or functional assay

Binder	ED 50 (細胞生存率が50%になるIgMの濃度; HPB-ALL 細胞, WST-1) [ng/mL]
B1	10.7
B2	1.1
B3	1.7
B4	2.4
B5	1
B6	3.4
B7	1.5
